The values below come from PMC8642242.

The target of the assay is SARS-CoV-2 stabilized S trimer (HexaPro) (SARS-CoV-2).

Turning to WRAIR-2123 (human IgG1) (antibody), the IC50 of neutralization of SARS-CoV-2 (IL1/2020) pseudovirus (pSV assay) came out at 4 ng ml^−1. Consider WRAIR-2165 (human IgG1) (antibody), for which the IC50 of neutralization of SARS-CoV-2 (IL1/2020) pseudovirus (pSV assay) was determined as 10 ng ml^−1. In the case of WRAIR-2173 (human IgG1) (antibody), the IC50 of neutralization of SARS-CoV-2 (IL1/2020) pseudovirus (pSV assay) was found to be 4 ng ml^−1.
